± gives the uncertainty stated by the source.

First the molecules themselves.
B1: Activity-dependent neuroprotector homeobox protein, residues 770 to 810; numbered along this chain, Q9H2P0 (parent)
chain: FLTKYFNKQPYPTRREIEKLAASLWLWKSDIASHFSNKRKK

The variants in this data set derive from B1. Nature of the data set: abundance fitness (aPCA) (normalised: wild type 0, dead -1); higher = more abundant; growth selection in yeast, the domain comes from the species named. The note with it: Homo sapiens.
As to FLTKYFNKQPYPTRREIEKLAASLWLWKSDIASHFSNSRKK [K38S], the abundance fitness is -0.183 ± 0.049.

As for FLTKYFNKQPYPTRREIEKLAASLWLWKSDIASHFSNNRKK [K38N], the abundance fitness was -0.298 ± 0.079.

Consider FLTKYFNKQPYPTRREIEKLAASLWLWKSDIASHFSNWRKK [K38W], for which the abundance fitness is -0.242 ± 0.11.

Regarding FLTKYFNKQPYPTRREIEKLAASLWLWKSDIAAHFSNKRKK [S33A], the abundance fitness was 0.014 ± 0.058.

Consider FLTKYFNKQPYPTRREIEKLAASLWLWKSDIAMHFSNKRKK [S33M], for which the abundance fitness is -0.061 ± 0.064.

Consider FLTKYFNKQPYPTRREIEKLAASLWLWKSDIAYHFSNKRKK [S33Y], for which the abundance fitness was -0.381 ± 0.076.

In the case of FLTKYFNKQPYPTRREIEKLAASLWLWKSDIAKHFSNKRKK [S33K], the abundance fitness stood at 0.044 ± 0.085.

On to FLTKYFNKQPYPTRREIEKLAASLWLWKSDIARHFSNKRKK [S33R], for which the abundance fitness stood at 0.032 ± 0.052.

Regarding FLTKYFNKQPYPTRREIEKLAASLWLWKSDIACHFSNKRKK [S33C], the abundance fitness is -0.058 ± 0.06.

Turning to FLTKYFNKQPYPTRREIELLAASLWLWKSDIASHFSNKRKK [K19L], the abundance fitness is -0.63 ± 0.089.

Regarding FLTKYFNKQPYPTRREIEPLAASLWLWKSDIASHFSNKRKK [K19P], the abundance fitness is -0.864 ± 0.17.

For FLTKYFNKQPYPWRREIEKLAASLWLWKSDIASHFSNKRKK [T13W], the abundance fitness is 0.221 ± 0.072.

As for FLTKYFNKQPYPQRREIEKLAASLWLWKSDIASHFSNKRKK [T13Q], the abundance fitness was -0.098 ± 0.084.

On to FLTKYFNKQPYPTRREIEKLANSLWLWKSDIASHFSNKRKK [A22N], for which the abundance fitness is -0.015 ± 0.064.

On to FLTKYFNKQPYPTRREIEKLARSLWLWKSDIASHFSNKRKK [A22R], for which the abundance fitness was -0.027 ± 0.052.

Regarding FLTKYFNKQPYPTRREIEKLAKSLWLWKSDIASHFSNKRKK [A22K], the abundance fitness turned out to be 0.075 ± 0.091.

For the variant FLTKYFNKQPYPTRREIEKLASSLWLWKSDIASHFSNKRKK [A22S], the abundance fitness is -0.117 ± 0.059.

For the variant FLTKYFNKQPYPTRREIEKLAASLWLWKSDIASHFSVKRKK [N37V], the abundance fitness is -0.091 ± 0.053.

Regarding FLTKYFNKQPYPTRREIEKLAASLWLWKSDIASHFSQKRKK [N37Q], the abundance fitness was -0.141 ± 0.06.

Turning to FLTKYFNKQPYPTRREIEKLAASLWLWKSDIASHFSKKRKK [N37K], the abundance fitness amounted to 0.131 ± 0.11.

On to FLTKYFNKQPYPTRHEIEKLAASLWLWKSDIASHFSNKRKK [R15H], for which the abundance fitness was -0.384 ± 0.11.

Regarding FLTKYFNKQPYPTRKEIEKLAASLWLWKSDIASHFSNKRKK [R15K], the abundance fitness came to 0.093 ± 0.072.

As to FLTKYFNKQPYPTRTEIEKLAASLWLWKSDIASHFSNKRKK [R15T], the abundance fitness was -0.005 ± 0.066.

For the variant FLTKYFNKQPYPTRAEIEKLAASLWLWKSDIASHFSNKRKK [R15A], the abundance fitness stood at 0.116 ± 0.052.

In the case of FRTKYFNKQPYPTRREIEKLAASLWLWKSDIASHFSNKRKK [L2R], the abundance fitness is -0.789 ± 0.074.

In the case of FETKYFNKQPYPTRREIEKLAASLWLWKSDIASHFSNKRKK [L2E], the abundance fitness was -1.06 ± 0.26.

In the case of FLTKYFNKQPYPTRREIEKLAASLWLWKSDIQSHFSNKRKK [A32Q], the abundance fitness was -0.169 ± 0.17.

As for FLTKYFNKQPYPTRREIEKLAASLWLWKSDIASHFSNKRAK [K40A], the abundance fitness is -0.013 ± 0.096.

Take FLTKYFNKQPYPTRREIEKLAASLWLWKSDIASHFSNKRCK [K40C]: the abundance fitness is -0.097 ± 0.15.

For the variant FLTKYFNKQPYPTRREIEKLAASLWLWKSKIASHFSNKRKK [D30K], the abundance fitness worked out at 0.071 ± 0.1.

As for FLTKYFNKQPYPTRREIEKLAASLWLWKSRIASHFSNKRKK [D30R], the abundance fitness was -0.026 ± 0.053.

As to FLTKYFNKQPYPTRREIEKLAASLWLWKSMIASHFSNKRKK [D30M], the abundance fitness is -0.054 ± 0.1.

On to FLTKYFNKQPYPTRREIEKLAAALWLWKSDIASHFSNKRKK [S23A], for which the abundance fitness was -0.177 ± 0.079.

Take FLTKYFNKQPYPTRREIEKLAANLWLWKSDIASHFSNKRKK [S23N]: the abundance fitness is -0.074 ± 0.16.

For FLTKYFNKQPYPTRREIEKLAAQLWLWKSDIASHFSNKRKK [S23Q], the abundance fitness was -0.404 ± 0.28.

For the variant FLTKYFNKQPYPTRREIEKLAAVLWLWKSDIASHFSNKRKK [S23V], the abundance fitness was -0.101 ± 0.085.

For the variant FLTKYFNKQPYPTRREIEKLAASLWLWPSDIASHFSNKRKK [K28P], the abundance fitness was 0.257 ± 0.072.

Consider FLTKYFNKSPYPTRREIEKLAASLWLWKSDIASHFSNKRKK [Q9S], for which the abundance fitness was -0.139 ± 0.062.

Take FLTKYFNKGPYPTRREIEKLAASLWLWKSDIASHFSNKRKK [Q9G]: the abundance fitness is -0.133 ± 0.12.

FLTKYFNKYPYPTRREIEKLAASLWLWKSDIASHFSNKRKK [Q9Y]: the abundance fitness was -0.409 ± 0.19.

Take FLTKYFNKRPYPTRREIEKLAASLWLWKSDIASHFSNKRKK [Q9R]: the abundance fitness came out at 0.039 ± 0.059.

Take FLTKYFNKFPYPTRREIEKLAASLWLWKSDIASHFSNKRKK [Q9F]: the abundance fitness was -0.233 ± 0.11.

For FLTKYFNKQPYPTRRENEKLAASLWLWKSDIASHFSNKRKK [I17N], the abundance fitness was -0.687 ± 0.14.

As to FLTKKFNKQPYPTRREIEKLAASLWLWKSDIASHFSNKRKK [Y5K], the abundance fitness is -0.183 ± 0.28.

On to FLTKYFNKQPVPTRREIEKLAASLWLWKSDIASHFSNKRKK [Y11V], for which the abundance fitness was determined as 0.031 ± 0.053.

In the case of FLTKYFNKQPHPTRREIEKLAASLWLWKSDIASHFSNKRKK [Y11H], the abundance fitness stood at 0.076 ± 0.078.

For the variant FLTKYFNKQPMPTRREIEKLAASLWLWKSDIASHFSNKRKK [Y11M], the abundance fitness amounted to 0.058 ± 0.085.

As to FLTKYFNKQPNPTRREIEKLAASLWLWKSDIASHFSNKRKK [Y11N], the abundance fitness stood at 0.124 ± 0.059.

For the variant FLTKYFNYQPYPTRREIEKLAASLWLWKSDIASHFSNKRKK [K8Y], the abundance fitness was -0.554 ± 0.1.

With FLTKYFNLQPYPTRREIEKLAASLWLWKSDIASHFSNKRKK [K8L], the abundance fitness is -1.02 ± 0.097.

For FLTKYFNQQPYPTRREIEKLAASLWLWKSDIASHFSNKRKK [K8Q], the abundance fitness was -0.858 ± 0.12.

On to FLTKYFNEQPYPTRREIEKLAASLWLWKSDIASHFSNKRKK [K8E], for which the abundance fitness was -0.634 ± 0.14.

With FLTKYFNFQPYPTRREIEKLAASLWLWKSDIASHFSNKRKK [K8F], the abundance fitness is -1.13 ± 0.18.

For the variant FLTKYFAKQPYPTRREIEKLAASLWLWKSDIASHFSNKRKK [N7A], the abundance fitness is -0.145 ± 0.053.

In the case of FLTKYFWKQPYPTRREIEKLAASLWLWKSDIASHFSNKRKK [N7W], the abundance fitness was -0.958 ± 0.21.

For FLTKYFNKQPYPTRREIEKLAASLWLWKSDIASHKSNKRKK [F35K], the abundance fitness was -0.211 ± 0.08.

Take FLTKYFNKQPYPTRREIEKLAASLWLWKSDIASHASNKRKK [F35A]: the abundance fitness is -0.119 ± 0.044.

Take FLTKYFNKQPYPTRREIEKLAASLWLWKSDIASHHSNKRKK [F35H]: the abundance fitness is -0.237 ± 0.052.

Consider FLTKYFNKQPYPTRREIEKLAASLWLWKSDIASHYSNKRKK [F35Y], for which the abundance fitness is -0.235 ± 0.065.

On to FLTKYFNKQPYPTRREIEKLAASLWLWKSDIASHGSNKRKK [F35G], for which the abundance fitness was -0.112 ± 0.05.

Take FLTKYFNKQPYPTRREIEKLAASLWLWKSDIASHLSNKRKK [F35L]: the abundance fitness is -0.023 ± 0.044.
